Data: the supplement of paper PMC10724198
± gives the standard deviation of the averaged measurements.

How the values were obtained:
[1] = tested on: Saccharomyces cerevisiae; experiment: protein stability index of tFT-peptide fusion (C-terminal peptide) (PSI (0-1 scale)); higher = more stable (slower turnover)
Procedure: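 MPS profiling in S. cerevisiae of the tFT-X12 degron library: putative degron peptides plus stable controls, 12 aa, fused to the C-terminus of a sfGFP-mCherry timer. Cells are FACS-sorted into 8 mCherry/sfGFP bins and deep-sequenced. PSI runs from 0 (unstable) to 1 (stable). Backgrounds are wild type, das1Δ and doa10Δ at 30 °C, and wild type, das1Δ, cdc34-1 and cdc53-1 at 37 °C; 2-3 technical replicates each.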

[2] = tested on: Saccharomyces cerevisiae; experiment: as above; conditions: genetic background: wild type; temperature: 30 C
[3] = genetic background: cdc34-1, temperature: 37 C
[4] = genetic background: cdc53-1, temperature: 37 C
[5] = genetic background: das1 deletion, temperature: 30 C
[6] = genetic background: das1 deletion, temperature: 37 C
[7] = genetic background: doa10 deletion, temperature: 30 C
[8] = genetic background: wild type, temperature: 30 C
[9] = genetic background: wild type, temperature: 37 C
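Also: PSI is a weighted mean of sequencing reads over stability bins, variants kept only with over 10 reads, mCherry proximal and sfGFP distal, peptide attached via GGGS linker.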

Sequence	protein stability index [1, 3]	protein stability index [1, 4]	protein stability index [1, 5]	protein stability index [1, 6]	protein stability index [1, 7]	protein stability index [1, 8]	protein stability index [1, 9]	protein stability index [2]
FVFIFIRVFFFR	0.174 ± 0.0037	0.207 ± 0.024	0.189 ± 0.044	0.308 ± 0.017	0.171 ± 0.0012	0.176 ± 0.011	0.2451 ± 0.0022	0.269 ± 0.011
LVRFYGPLPPFP	0.688 ± 0.047	0.7613 ± 0.0063	0.664 ± 0.029	0.757 ± 0.011	0.656 ± 0.016	0.66 ± 0.011	0.729 ± 0.011	0.7258 ± 0.0068
CRLATILRITAL	0.574 ± 0.028	0.665 ± 0.026	0.552 ± 0.022	0.658 ± 0.021	0.193 ± 0.008	0.241 ± 0.031	0.4445 ± 0.00077	0.384 ± 0.018
LALTRAAITHFF	0.649 ± 0.026	0.749 ± 0.013	0.652 ± 0.017	0.743 ± 0.039	0.213 ± 0.0085	0.253 ± 0.026	0.496 ± 0.021	0.42 ± 0.026
SLSFLRPLLLIF	0.0444 ± 0.014	0.0385 ± 0.012	0.12 ± 0.028	0.118 ± 0.0077	0.131 ± 0.0095	0.0702 ± 0.013	0.0953 ± 0.019	0.102 ± 0.012
GNRDLVNTSVEG	0.679 ± 0.029	0.721 ± 0.011	0.619 ± 0.045	0.715 ± 0.051	0.6331 ± 0.006	0.633 ± 0.033	0.6989 ± 0.0025	0.547 ± 0.17
RLLFFVFLSSRF	0.287 ± 0.019	0.268 ± 0.014	0.33 ± 0.025	0.472 ± 0.0093	0.489 ± 0.04	0.329 ± 0.035	0.4212 ± 0.0027	0.407 ± 0.0066
YIILLSRKCAFC	0.573 ± 0.017	0.65 ± 0.013	0.51 ± 0.018	0.645 ± 0.015	0.401 ± 0.011	0.396 ± 0.024	0.586 ± 0.029	0.503 ± 0.017
VVFWWGHLLVSA	0.03535 ± 6.3e-05	0.0483 ± 0.016	0.118 ± 0.031	0.113 ± 0.009	0.0877 ± 0.021	0.0919 ± 0.021	0.0854 ± 0.0074	0.142 ± 0.024
FVFLVLGPYAMF	0.444 ± 0.032	0.512 ± 0.013	0.354 ± 0.028	0.609 ± 0.048	0.346 ± 0.013	0.341 ± 0.01	0.556 ± 0.019	0.415 ± 0.0026
VGFIVCFFFSFG	0.334 ± 0.049	0.456 ± 0.0062	0.325 ± 0.033	0.459 ± 0.017	0.3 ± 0.031	0.313 ± 0.026	0.453 ± 0.0084	0.432 ± 0.02
FFCCVLFSIVVY	0.0536 ± 0.029	0.0863 ± 0.019	0.129 ± 0.026	0.167 ± 0.002	0.103 ± 0.0065	0.104 ± 0.028	0.114 ± 0.024	0.171 ± 0.0089
SFSFCCLLASFV	0.605 ± 0.015	0.6186 ± 0.006	0.484 ± 0.028	0.617 ± 0.014	0.444 ± 0.025	0.461 ± 0.015	0.603 ± 0.013	0.44 ± 0.044
LSRSAGVGVWVG	0.65 ± 0.01	0.72 ± 0.019	0.647 ± 0.0099	0.731 ± 0.013	0.243 ± 0.018	0.283 ± 0.022	0.553 ± 0.026	0.391 ± 0.073
RQILYYRERFIP	0.577 ± 0.043	0.715 ± 0.014	0.634 ± 0.011	0.694 ± 0.027	0.169 ± 0.012	0.196 ± 0.022	0.355 ± 0.017	0.313 ± 0.0065
VCRGWCVVRYIL	0.593 ± 0.015	0.699 ± 0.0099	0.574 ± 0.012	0.7226 ± 0.0024	0.173 ± 0.00096	0.18 ± 0.016	0.259 ± 0.0046	0.281 ± 0.064
GCVGLSFCVWVG	0.382 ± 0.011	0.502 ± 0.02	0.323 ± 0.031	0.523 ± 0.026	0.175 ± 0.015	0.211 ± 0.018	0.3965 ± 0.0014	0.314 ± 0.023
FFFSLFFVLFFA	0.284 ± 0.035	0.23 ± 0.011	0.21 ± 0.035	0.348 ± 0.061	0.323 ± 0.028	0.2 ± 0.022	0.314 ± 0.013	0.22 ± 0.0051
GYRRCCHFLFTL	0.671 ± 0.02	0.735 ± 0.035	0.622 ± 0.023	0.747 ± 0.00099	0.359 ± 0.023	0.375 ± 0.029	0.56 ± 0.0064	0.423 ± 0.034
